Experimental data from IntAct's records for PubMed 16888620.

B1: Serine/threonine-protein kinase Sgk3 (Homo sapiens), Q96BR1 (parent)
chain: MQRDHTMDYKESCPSVSIPSSDEHREKKKRFTVYKVLVSVGRSEWFVFRRYAEFDKLYNTLKKQFPAMALKIPAKRIFGDNFDPDFIKQRRAGLNEFIQNLVRYPELYNHPDVRAFLQMDSPKHQSDPSEDEDERSSQKLHSTSQNINLGPSGNPHAKPTDFDFLKVIGKGSFGKVLLAKRKLDGKFYAVKVLQKKIVLNRKEQKHIMAERNVLLKNVKHPFLVGLHYSFQTTEKLYFVLDFVNGGELFFHLQRERSFPEHRARFYAAEIASALGYLHSIKIVYRDLKPENILLDSVGHVVLTDFGLCKEGIAISDTTTTFCGTPEYLAPEVIRKQPYDNTVDWWCLGAVLYEMLYGLPPFYCRDVAEMYDNILHKPLSLRPGVSLTAWSILEELLEKDRQNRLGAKEDFLEIQNHPFFESLSWADLVQKKIPPPFNPNVAGPDDIRNFDTAFTEETVPYSVCVSSDYSIVNASVLEADDAFVGFSYAPPSEDLFL

Variants of: B1
Details: with itch_human ITCH

Question: MQRDHTMDYKESCPSVSIPSSDEHREKKKRFTVYKVLVSVGRSEWFVFRRYAEFDKLYNTLKKQFPAMALKIPAKRIFGDNFDPDFIKQRRAGLNEFIQNLVRYPELYNHPDVRAFLQMDSPKHQSDPSEDEDERSSQKLHSTSQNINLGPSGNPHAKPTDFDFLKVIGKGSFGKVLLAKRKLDGKFYAVKVLQKKIVLNRKEQKHIMAERNVLLKNVKHPFLVGLHYSFQTTEKLYFVLDFVNGGELFFHLQRERSFPEHRARFYAAEIASALGYLHSIKIVYRDLKPENILLDSVGHVVLTDFGLCKEGIAISDTTTTFCGTPEYLAPEVIRKQPYDNTVDWWCLGAVLYEMLYGLPPFACRDVAEMYDNILHKPLSLRPGVSLTAWSILEELLEKDRQNRLGAKEDFLEIQNHPFFESLSWADLVQKKIPPPFNPNVAGPDDIRNFDTAFTEETVPYSVCVSSDYSIVNASVLEADDAFVGFSYAPPSEDLFL [Y362A] was tested. Which “effect of a mutation on the interaction” value did it give?
Answer: The value was “decreasing interaction”.
